B1: M1 (antibody, V domains shown)
VH: EVQLLESGGGLVQPGGSLRLSCAASGFTFSTYGMDWVRQAPGKGLEWVSYISPSGGYTMYADSVKGRFTISRDNSKNTLYLQMNSLRAEDTAVYYCARHSPRSAGANAFDIWGQGTMVTVSS
VL: DIQMTQSPATLSVSPGERATLSCRASQSVSSNLAWYQQKPGQAPRLLIYGASTRATGIPARFSGSGSGTEFTLTISSLQSEDFAVYYCQQYGSSLWTFGQGTKVEIK
notes: Fully human anti-AMCase antibody from phage display, converted to full length IgG
B2: mouse galectin-4 (other, UniProt Q8K419 1-326, looked up)
chain: MAYVPAPGYQPTYNPTLPYKRPIPGGLSVGMSVYIQGMAKENMRRFHVNFAVGQDDGADVAFHFNPRFDGWDKVVFNTMQSGQWGKEEKKKSMPFQKGKHFELVFMVMPEHYKVVVNGNSFYEYGHRLPVQMVTHLQVDGDLELQSINFLGGQPAAAPYPGAMTIPAYPAGSPGYNPPQMNTLPVMTGPPVFNPRVPYVGALQGGLTVRRTIIIKGYVLPTARNFVINFKVGSSGDIALHLNPRIGDSVVRNSFMNGSWGAEERKVAYNPFGPGQFFDLSIRCGMDRFKVFANGQHLFDFSHRFQAFQMVDTLEINGDITLSYVQI
notes: also called mGal-4
B3: human acidic mammalian chitinase (AMCase), full length (enzyme)
chain: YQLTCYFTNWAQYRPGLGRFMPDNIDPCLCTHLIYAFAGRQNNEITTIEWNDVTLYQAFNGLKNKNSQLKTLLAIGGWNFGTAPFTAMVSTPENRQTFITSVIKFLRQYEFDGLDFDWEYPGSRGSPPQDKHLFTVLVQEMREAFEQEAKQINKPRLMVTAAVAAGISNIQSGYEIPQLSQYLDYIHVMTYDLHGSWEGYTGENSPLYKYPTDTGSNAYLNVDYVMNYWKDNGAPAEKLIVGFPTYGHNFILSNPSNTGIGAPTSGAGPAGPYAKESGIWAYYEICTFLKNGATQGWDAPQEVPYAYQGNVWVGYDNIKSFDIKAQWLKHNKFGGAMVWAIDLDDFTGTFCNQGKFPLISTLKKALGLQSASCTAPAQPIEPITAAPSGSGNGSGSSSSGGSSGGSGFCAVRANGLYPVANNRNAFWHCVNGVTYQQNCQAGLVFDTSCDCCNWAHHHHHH
notes: Recombinant from HEK293; non-tagged versions also made; Biotin labeled in the galectin ELISA; also called hAMCase; human AMCase
B4: galectin 2 (other, UniProt P05162 1-132, looked up)
chain: MTGELEVKNMDMKPGSTLKITGSIADGTDGFVINLGQGTDKLNLHFNPRFSESTIVCNSLDGSNWGQEQREDHLCFSPGSEVKFTVTFESDKFKVKLPDGHELTFPNRLGHSHLSYLSVRGGFNMSSFKLKE
B5: human AMCase C-terminally truncated, lacking the chitin binding domain (enzyme)
chain: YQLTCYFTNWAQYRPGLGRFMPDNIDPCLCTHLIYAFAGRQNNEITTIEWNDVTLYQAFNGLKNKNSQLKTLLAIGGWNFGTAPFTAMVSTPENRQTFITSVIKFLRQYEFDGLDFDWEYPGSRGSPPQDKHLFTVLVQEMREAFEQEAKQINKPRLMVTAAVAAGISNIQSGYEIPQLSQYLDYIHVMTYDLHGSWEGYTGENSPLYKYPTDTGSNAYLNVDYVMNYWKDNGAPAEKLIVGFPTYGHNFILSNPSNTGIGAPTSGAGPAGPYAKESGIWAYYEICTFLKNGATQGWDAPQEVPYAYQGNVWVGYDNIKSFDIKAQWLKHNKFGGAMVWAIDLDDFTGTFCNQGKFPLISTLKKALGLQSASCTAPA
notes: Biotin labeled in the galectin ELISA; also called hAMCase TR
B6: galectin 8 (other, UniProt O00214 1-317, looked up)
chain: MMLSLNNLQNIIYNPVIPFVGTIPDQLDPGTLIVIRGHVPSDADRFQVDLQNGSSMKPRADVAFHFNPRFKRAGCIVCNTLINEKWGREEITYDTPFKREKSFEIVIMVLKDKFQVAVNGKHTLLYGHRIGPEKIDTLGIYGKVNIHSIGFSFSSDLQSTQASSLELTEISRENVPKSGTPQLRLPFAARLNTPMGPGRTVVVKGEVNANAKSFNVDLLAGKSKDIALHLNPRLNIKAFVRNSFLQESWGEEERNITSFPFSPGMYFEMIIYCDVREFKVAVNGVHSLEYKHRFKELSSIDTLEINGDIHLLEVRSW
notes: also called LGALS8
B7: human galectin-4 (other, UniProt P56470 1-323, looked up)
chain: MAYVPAPGYQPTYNPTLPYYQPIPGGLNVGMSVYIQGVASEHMKRFFVNFVVGQDPGSDVAFHFNPRFDGWDKVVFNTLQGGKWGSEERKRSMPFKKGAAFELVFIVLAEHYKVVVNGNPFYEYGHRLPLQMVTHLQVDGDLQLQSINFIGGQPLRPQGPPMMPPYPGPGHCHQQLNSLPTMEGPPTFNPPVPYFGRLQGGLTARRTIIIKGYVPPTGKSFAINFKVGSSGDIALHINPRMGNGTVVRNSLLNGSWGSEEKKITHNPFGPGQFFDLSIRCGLDRFKVYANGQHLFDFAHRLSAFQRVDTLEIQGDVTLSYVQI
notes: also called gal-4
B8: mouse galectin-3 (other, UniProt P16110 2-264, looked up)
chain: ADSFSLNDALAGSGNPNPQGYPGAWGNQPGAGGYPGAAYPGAYPGQAPPGAYPGQAPPGAYPGQAPPSAYPGPTAPGAYPGPTAPGAYPGQPAPGAFPGQPGAPGAYPQCSGGYPAAGPYGVPAGPLTVPYDLPLPGGVMPRMLITIMGTVKPNANRIVLDFRRGNDVAFHFNPRFNENNRRVIVCNTKQDNNWGKEERQSAFPFESGKPFKIQVLVEADHFKVAVNDAHLLQYNHRMKNLREISQLGISGDITLTSANHAMI
notes: also called mGal-3
B9: M5 (antibody, V domains shown)
VH: EVQLLESGGGLVQPGGSLRLSCAASGFTFSKYLMQWVRQAPGKGLEWVSSIVPSGGETVYADSVKGRFTISRDNSKNTLYLQMNSLRAEDTAVYYCARSGTYGASRYWGQGTLVTVSS
VL: DIQMTQSPLSLSVSVGQSASISCRSSHSLLYSDGNTYINWFHQRPGQSPRRLIHMVSKRDSGVPDRFSGSGSGTDFTLKISRAEAEDVGVYYCMQATYFPLTFGGGTRVEIK
notes: Fully human anti-AMCase antibody from a phage display library, converted to full length IgG

Tests used:
human YKL-39 = target: T1, human YKL-39 (human, UniProt Q15782 27-390); experiment: ELISA
T1 construct: Recombinant from HEK293; non-tagged versions also made; also called hYKL-39; chondrocyte protein 39
T1 sequence: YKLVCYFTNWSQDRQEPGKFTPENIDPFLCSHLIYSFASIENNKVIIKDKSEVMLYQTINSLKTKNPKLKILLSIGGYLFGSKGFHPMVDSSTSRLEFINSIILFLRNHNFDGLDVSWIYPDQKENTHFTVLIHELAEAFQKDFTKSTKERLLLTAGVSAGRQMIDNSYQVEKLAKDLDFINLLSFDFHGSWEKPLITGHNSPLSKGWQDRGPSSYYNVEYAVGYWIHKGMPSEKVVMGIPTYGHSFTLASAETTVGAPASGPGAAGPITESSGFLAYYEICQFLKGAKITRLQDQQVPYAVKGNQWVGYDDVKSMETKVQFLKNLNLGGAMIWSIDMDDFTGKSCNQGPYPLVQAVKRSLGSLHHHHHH

mouse YKL-40/BRP-39 = target: T2, mouse YKL-40/BRP-39 (mouse, UniProt Q61362 30-389); experiment: ELISA
T2 construct: Recombinant from HEK293; non-tagged versions also made; also called mYKL40/BRP39; mYKL-40
T2 sequence (Q61362 other isoform, or with tags, fused parts or gaps limits assumed): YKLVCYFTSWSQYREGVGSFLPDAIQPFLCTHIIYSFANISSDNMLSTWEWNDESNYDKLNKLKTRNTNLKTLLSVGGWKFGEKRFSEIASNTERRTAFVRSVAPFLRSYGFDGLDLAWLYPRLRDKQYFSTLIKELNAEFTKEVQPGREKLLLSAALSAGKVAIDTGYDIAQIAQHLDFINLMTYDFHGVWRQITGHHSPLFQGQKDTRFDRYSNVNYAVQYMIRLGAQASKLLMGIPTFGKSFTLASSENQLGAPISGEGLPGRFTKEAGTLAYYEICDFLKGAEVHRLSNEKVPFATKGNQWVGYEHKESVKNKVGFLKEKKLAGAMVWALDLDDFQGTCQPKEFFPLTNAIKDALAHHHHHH

[1] = target: B3; experiment: ELISA
mouse chitotriosidase = target: T3, mouse chitotriosidase (mouse, UniProt Q9D7Q1 22-464); experiment: ELISA
T3 construct: Recombinant from HEK293; non-tagged versions also made; also called mChT; mouse ChT
T3 sequence (Q9D7Q1 other isoform, or with tags, fused parts or gaps limits assumed): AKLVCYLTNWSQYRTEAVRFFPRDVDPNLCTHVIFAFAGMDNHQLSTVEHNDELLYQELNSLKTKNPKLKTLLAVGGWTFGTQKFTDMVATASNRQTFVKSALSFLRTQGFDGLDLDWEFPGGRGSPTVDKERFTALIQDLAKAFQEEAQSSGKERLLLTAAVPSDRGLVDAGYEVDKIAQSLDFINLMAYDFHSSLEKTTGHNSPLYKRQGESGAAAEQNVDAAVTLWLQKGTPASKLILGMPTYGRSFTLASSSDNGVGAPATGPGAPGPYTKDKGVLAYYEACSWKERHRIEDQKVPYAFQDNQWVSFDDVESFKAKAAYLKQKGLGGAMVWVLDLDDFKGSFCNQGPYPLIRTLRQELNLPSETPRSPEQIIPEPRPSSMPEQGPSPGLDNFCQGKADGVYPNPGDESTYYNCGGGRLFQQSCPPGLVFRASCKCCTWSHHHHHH

Ym1 = target: T4, Ym1 (mouse, UniProt O35744 22-398); experiment: ELISA
T4 construct: Recombinant from HEK293; non-tagged versions also made; also called chitinase 3-like 3; ECF-L
T4 sequence (O35744 other isoform, or with tags, fused parts or gaps limits assumed): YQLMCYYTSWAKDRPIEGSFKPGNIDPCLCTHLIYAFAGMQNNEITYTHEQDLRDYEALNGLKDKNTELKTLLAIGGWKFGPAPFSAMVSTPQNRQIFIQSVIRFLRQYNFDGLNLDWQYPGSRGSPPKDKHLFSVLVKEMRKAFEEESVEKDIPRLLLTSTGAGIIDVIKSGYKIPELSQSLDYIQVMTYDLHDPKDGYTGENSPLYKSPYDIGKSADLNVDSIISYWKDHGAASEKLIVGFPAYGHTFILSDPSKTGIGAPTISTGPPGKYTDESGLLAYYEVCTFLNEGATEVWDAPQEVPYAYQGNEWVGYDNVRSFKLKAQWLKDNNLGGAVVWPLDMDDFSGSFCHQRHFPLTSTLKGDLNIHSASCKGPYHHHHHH

[2] = target: B5; experiment: ELISA
human YKL-40 = target: T5, human YKL-40 (human, UniProt P36222 22-383); experiment: ELISA
T5 construct: Recombinant from HEK293; non-tagged versions also made; also called hYKL-40; chitinase 3-like 1
T5 sequence (P36222 other isoform, or with tags, fused parts or gaps limits assumed): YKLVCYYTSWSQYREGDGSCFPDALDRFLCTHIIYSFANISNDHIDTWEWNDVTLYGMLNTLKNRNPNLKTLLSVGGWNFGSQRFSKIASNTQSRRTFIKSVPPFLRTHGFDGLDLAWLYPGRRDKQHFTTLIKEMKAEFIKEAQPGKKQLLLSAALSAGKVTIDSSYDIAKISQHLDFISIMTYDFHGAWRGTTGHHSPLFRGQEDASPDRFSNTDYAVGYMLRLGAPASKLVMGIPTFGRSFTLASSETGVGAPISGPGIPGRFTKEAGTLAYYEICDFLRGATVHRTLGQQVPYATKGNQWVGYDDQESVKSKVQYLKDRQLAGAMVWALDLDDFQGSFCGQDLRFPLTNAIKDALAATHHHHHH

Ym2 = target: T6, Ym2 (mouse, UniProt Q91Z98 22-402); experiment: ELISA
T6 construct: Recombinant from HEK293; non-tagged versions also made; also called chitinase 3-like 4
T6 sequence (Q91Z98 other isoform, or with tags, fused parts or gaps limits assumed): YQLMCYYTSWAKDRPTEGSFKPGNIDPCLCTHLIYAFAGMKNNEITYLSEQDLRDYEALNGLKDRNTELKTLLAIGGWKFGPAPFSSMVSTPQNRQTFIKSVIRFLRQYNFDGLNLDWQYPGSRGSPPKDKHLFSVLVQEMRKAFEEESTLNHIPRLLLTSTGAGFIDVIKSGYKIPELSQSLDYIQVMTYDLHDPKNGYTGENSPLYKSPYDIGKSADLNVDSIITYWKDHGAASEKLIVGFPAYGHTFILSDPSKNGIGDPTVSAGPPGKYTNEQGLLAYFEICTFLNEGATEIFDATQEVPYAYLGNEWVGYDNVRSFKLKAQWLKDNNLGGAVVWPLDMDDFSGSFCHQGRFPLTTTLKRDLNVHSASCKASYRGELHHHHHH

[3] = target: T7, mouse AMCase truncated form lacking the C-terminal chitin binding domain (mouse, UniProt Q91XA9 22-398, limits assumed); experiment: ELISA
T7 construct: also called mAMCase TR
T7 sequence (Q91XA9 22-398 limits assumed): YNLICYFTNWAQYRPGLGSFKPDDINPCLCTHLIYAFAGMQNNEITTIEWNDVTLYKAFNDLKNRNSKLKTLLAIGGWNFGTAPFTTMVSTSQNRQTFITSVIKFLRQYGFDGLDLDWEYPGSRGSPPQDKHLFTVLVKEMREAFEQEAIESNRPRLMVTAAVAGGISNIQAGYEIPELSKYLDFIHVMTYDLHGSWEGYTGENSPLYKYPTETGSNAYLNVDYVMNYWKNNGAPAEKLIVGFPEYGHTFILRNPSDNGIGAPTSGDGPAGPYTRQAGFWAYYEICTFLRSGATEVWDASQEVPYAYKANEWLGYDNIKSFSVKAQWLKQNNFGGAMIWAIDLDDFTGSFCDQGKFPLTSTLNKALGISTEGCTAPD

human chitotriosidase = target: T8, human chitotriosidase (human, UniProt Q13231 22-466); experiment: ELISA
T8 construct: Recombinant from HEK293; non-tagged versions also made; also called hChT; ChT
T8 sequence (Q13231 other isoform, or with tags, fused parts or gaps limits assumed): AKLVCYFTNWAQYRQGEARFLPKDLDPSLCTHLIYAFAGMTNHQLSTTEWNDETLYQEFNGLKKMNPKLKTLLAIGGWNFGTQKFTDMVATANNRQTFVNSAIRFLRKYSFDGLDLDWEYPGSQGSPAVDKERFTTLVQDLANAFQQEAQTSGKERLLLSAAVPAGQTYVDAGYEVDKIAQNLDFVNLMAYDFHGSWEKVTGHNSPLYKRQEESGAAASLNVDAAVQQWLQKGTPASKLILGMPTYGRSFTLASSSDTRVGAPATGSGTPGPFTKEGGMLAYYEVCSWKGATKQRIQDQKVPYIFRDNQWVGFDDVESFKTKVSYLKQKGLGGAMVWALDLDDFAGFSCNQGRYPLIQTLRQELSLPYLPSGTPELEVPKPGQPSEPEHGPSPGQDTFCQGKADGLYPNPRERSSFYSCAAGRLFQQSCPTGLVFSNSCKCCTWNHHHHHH

[4] = target: T9, mouse acidic mammalian chitinase (AMCase), full length (mouse, UniProt Q91XA9 22-473); experiment: ELISA (data not shown)
T9 construct: Recombinant, secreted from HEK293 cells and purified by its His tag; Biotin labeled in the galectin ELISA; also called mAMCase; mouse AMCase
T9 sequence (Q91XA9 other isoform, or with tags, fused parts or gaps limits assumed): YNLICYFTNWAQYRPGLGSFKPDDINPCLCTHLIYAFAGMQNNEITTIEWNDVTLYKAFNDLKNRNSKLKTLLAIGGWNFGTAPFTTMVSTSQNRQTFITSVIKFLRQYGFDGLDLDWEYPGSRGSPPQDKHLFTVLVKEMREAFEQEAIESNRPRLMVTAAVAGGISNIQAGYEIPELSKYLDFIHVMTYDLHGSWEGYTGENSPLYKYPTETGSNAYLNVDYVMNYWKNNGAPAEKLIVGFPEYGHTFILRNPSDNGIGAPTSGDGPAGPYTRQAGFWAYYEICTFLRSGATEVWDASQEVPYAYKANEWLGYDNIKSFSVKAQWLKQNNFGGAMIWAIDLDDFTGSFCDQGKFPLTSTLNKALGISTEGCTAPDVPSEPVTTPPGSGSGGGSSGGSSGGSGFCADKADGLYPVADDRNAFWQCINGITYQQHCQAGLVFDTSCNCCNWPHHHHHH

human galectin-3 = target: T10, human galectin-3 (human, UniProt P17931 2-250); experiment: ELISA: galectin immobilised on the plate, serial dilutions of biotin-labelled AMCase, streptavidin-HRP, TMB, A450
T10 construct: also called gal-3; LGALS3
T10 sequence (P17931 2-250 limits assumed): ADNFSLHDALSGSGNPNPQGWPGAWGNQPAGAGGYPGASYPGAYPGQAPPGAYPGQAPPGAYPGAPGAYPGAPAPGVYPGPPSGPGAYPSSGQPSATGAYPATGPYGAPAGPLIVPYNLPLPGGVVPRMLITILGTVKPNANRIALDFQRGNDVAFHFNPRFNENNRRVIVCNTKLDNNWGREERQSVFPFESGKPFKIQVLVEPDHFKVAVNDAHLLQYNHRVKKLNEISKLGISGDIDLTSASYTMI
Experimental: (§1) C/CLP-Galectin Interaction ELISA: Galectin is immobilized on a microtiter plate in DPBS over night at 2-8° C. The plates are then washed with DPBS, 0.1% Tween 20 and blocked for 1 hour at room temperature. Serial dilutions of biotin labeled AMCase are added to each well and incubated for ˜1 hour at room temperature followed by HRP labeled streptavidin. Horseradish peroxydase activity is detected with TMB substrate (KPL, MD) and the reaction is quenched with 1% H2SO4. The absorbance is read at 450 nm.

[5] = target: B5; experiment: ELISA: galectin immobilised on the plate, serial dilutions of biotin-labelled C-terminally truncated human AMCase, A450
Experimental: as §1

[6] = target: B3; experiment: ELISA: galectin immobilised on the plate, serial dilutions of biotin-labelled full length human AMCase, A450
Experimental: as §1

human galectin-4 = target: B7; experiment: ELISA: galectin immobilised on the plate, serial dilutions of biotin-labelled AMCase, streptavidin-HRP, TMB, A450
Experimental: as §1

[7] = target: B3; experiment: as above
Experimental: as §1

mouse AMCase D136A = target: T11, mouse AMCase D136A (mouse, UniProt Q91XA9 22-473); experiment: ELISA; +++ = 2.50 to 3.99 OD at 62.5 ng/ml
T11 construct: Full length point mutant without chitinase activity; also called mAMCase D136A
T11 sequence (Q91XA9 22-473 D136A limits assumed): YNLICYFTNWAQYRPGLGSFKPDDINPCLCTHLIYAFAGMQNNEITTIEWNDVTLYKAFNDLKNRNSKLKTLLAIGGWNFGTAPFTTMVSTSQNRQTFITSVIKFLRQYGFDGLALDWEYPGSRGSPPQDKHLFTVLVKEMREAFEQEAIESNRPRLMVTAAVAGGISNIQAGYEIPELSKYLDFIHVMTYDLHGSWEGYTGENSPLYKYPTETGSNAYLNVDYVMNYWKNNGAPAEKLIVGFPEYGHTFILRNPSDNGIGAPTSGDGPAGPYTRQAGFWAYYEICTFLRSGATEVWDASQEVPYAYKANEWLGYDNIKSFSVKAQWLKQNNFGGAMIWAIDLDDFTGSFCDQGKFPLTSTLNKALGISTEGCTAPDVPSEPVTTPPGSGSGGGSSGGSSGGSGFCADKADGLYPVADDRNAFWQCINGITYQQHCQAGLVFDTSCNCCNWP

mouse AMCase E140A = target: T12, mouse AMCase E140A (mouse, UniProt Q91XA9 22-473); experiment: ELISA; +++ = 2.50 to 3.99 OD at 62.5 ng/ml
T12 construct: Full length point mutant without chitinase activity; also called mAMCase E140A
T12 sequence (Q91XA9 22-473 E140A limits assumed): as the sequence (Q91XA9 22-473 D136A limits assumed) above, with A115D, E119A counted along it

[8] = target: T9, mouse acidic mammalian chitinase …; experiment: ELISA; +++ = 2.50 to 3.99 OD at 62.5 ng/ml

B1: no binding (human YKL-39); no binding (mouse YKL-40/BRP-39); no binding [1]. B1: no binding (mouse chitotriosidase); no binding (Ym1); no binding [2]. B1: no binding (human YKL-40); no binding (Ym2); no binding [3]. B1: no binding (human chitotriosidase).

B2: binds [4].

For B3, the “EC50 (read off the curve)” value (human galectin-3) was ~0.06 µg/mL.

B4: no binding (tested: 10 ug/ml) [5]; no binding (tested: 10 ug/ml) [6].

With B5 the “EC50 (read off the curve)” value (human galectin-4) was ~0.1 µg/mL.

B6: no binding (tested: 10 ug/ml) [5].

B7: binds [7].

B8: binds [4].

With B9 the “ELISA OD at 62.5 ng/ml antibody” value (mouse AMCase D136A) was 2.5 to 3.99 od, the “ELISA OD at 62.5 ng/ml antibody” value (mouse AMCase E140A) was 2.5 to 3.99 od and the “ELISA OD at 62.5 ng/ml antibody” value [8] was 2.5 to 3.99 od. B9: no binding (human YKL-39); no binding (mouse YKL-40/BRP-39); no binding [1]. B9: no binding (mouse chitotriosidase); no binding [2]; no binding (human YKL-40). B9: no binding [3]; no binding (human chitotriosidase).

Source: US20070071746A1 (AstraZeneca / MedImmune, published 2007)
